# Test: soluble on expression in E. coli; label from the status in PepcDB or PDB records
row,Sequence,soluble on expression in E. coli
1,MGHHHHHHSHMAATAAVSPSDYLQPAASTTQDSQPSPLALLAATCSKIGPPAVEAAVTPPAPPQPTPRKLVPIKPAPLPLSPGKNSFGILSSKGNILQIQGSQLSASYPGGQLVFAIQNPTMINKGTRSNANIQYQAVPQIQASNSQTIQVQPNLTNQIQIIPGTNQAIITPSPSSHKPVPIKPAPIQKSSTTTTPVQSGANVVKLTGGGGNVTLTLPVNNLVNASDTGAPTQLLTASCQTGMLNSTRMFLFLAFINVL,not soluble
2,MGHHHHHHSHMACKCDCKNKQCKCGDKCECSGDKCCEKYCCEEASEKKCCPAGCKGDCKCANCHCAEQKQCGDKTHQHQGTAAAH,not soluble
3,MGHHHHHHSHMAGAQPGVHALQLKPVCVSDSLKKGTKFVKWDDDSTIVTPIILRTDPQGFFFYWTDQNKETELLDLSLVKDARCGRHAKAPKDPKLRELLDVGNIGRLEQRMITVVYGPDLVNISHLNLVAFQEEVAKEWTNEVFSLATNLLAQNMSRDAFLEKAYTKLKLQVTPEGRIPLKNIYRLFSADRKRVETALEACSLPSSRN,not soluble
4,MGHHHHHHSHMARATTKQDLIMASNGQFEKLWVLIDGMSDDLQNATFADQMATAGKEAHWGRDKNLRDVLVHLYEWHQLLLNWINSNSKGERKPFLPEPYNWKTYSVMNVEFWKKHQQTPLAEAKDKLKESHRQVMALIETFSNDELFAKGVFDWTDTSTLGAYCVSATSSHYDWAMKKIKLHIKTGK,soluble
5,MGHHHHHHSHMDDAAVLKRRGYLLGINLGEGSYAKVKSAYSERLKFNVAIKIIDRKKAPADFLEKFLPREIEILAMLNHCSIIKTYEIFETSHGKVYIVMELAVQGDLLELIKTRGALHEDEARKKFHQLSLAIKYCHDLDVVHRDLKCDNLLLDKDFNIKLSDFSFSKRCLRDDSGRMALSKTFCGSPAYAAPEVLQGIPYQPKVYDIWSLGVILYIMVCGSMPYDDSNIKKMLRIQKEHRVNFPRSKHLTGECKDLIYHMLQPDVNRRLHIDEILSHCWMQPKARGSPSVA,not soluble
6,MGHHHHHHSHMEKIKIIVASDSIGETAELVARAGISQFNPKQCKNELLRYPYIESFEDVDEVIQVAKDTNAIIVYTLIKPEMKQYMSEKVAEFQLKSVDIMGPLMDLLSASVEEKPYNEPGIVHRLDDAYFKKIDAIEFAVKYDDGKDPKGLPKADIVLLGISRTSKTPLSQYLAHKSYKVMNVPIVPEVTPPDGLYDIDPKKCIALKISEEKLNRIRKERLKQLGLGDTARYATEARIQEELNYFEEIVSEIGCPVIDVSQKAIEETANDIIHYIEQNKSK,soluble
7,MGHHHHHHSHMEKNLLLTIESLYKNLRKANKAVDFTTVKFLLQDSRSLLHAFSTRSNYDGILPQTFAQVNNLLQTFAEVKTKLKPNSSENTVTKKQEGTSLKNSHNQEITVFSSSHLPQPSRHQEIWSILESVWITIYQNSTDVFQRLGSNSALTTSNIASFEEAFICLQKLMAAVRDILEGIQRILAPNSNYQDVETLYNFLIKYEVNKNVKFTAQEIYDCVSQTEYREKLTIGCRQLVEMEYTMQQCNASVYMEAKNRGWCEDMLNYRI,not soluble
8,MGHHHHHHSHMFNVMVDAKAQSTKLCSMEMGQEFAKMWHQYHSKIDELIEETVKEMITLLVAKFVTILEGVLAKLSRYDEGTLFSSFLSFTVKAASKYVDVPKPGMDVADAYVTFVRHSQDVLRDKVNEEMYIERLFDQWYNSSMNVICTWLTDRMDLQLHIYQLKTLIRMVKKTYRDFRLQGVLDSTLNSKTYETIRNRLTVEEATASVSEGGGLQGISMKDSDEEDEEDD,not soluble
9,MGHHHHHHSHMFVSDFRKEFYEVVQSQRVLLFVASDVDALCACKILQALFQCDHVQYTLVPVSGWQELETAFLEHKEQFHYFILINCGANVDLLDILQPDEDTIFFVCDTHRPVNVVNVYNDTQIKLLIKQDDDLEVPAYEDIFRDEEED,soluble
10,MGHHHHHHSHMISAHRNLHLPGSSNSPASAFLSSWDYRHVPPCPANVVFLVEMGFLHVGQAGLELPTSDDPPTLASQSAGITGVSHRTWQEFASLTVSQAVLRMLVWGPQFENHCSKLLMASEGDSSLVFFLYPLSNLN,not soluble
11,MGHHHHHHSHMKGIMVQGTASDVGKSLICTALCRIFARRGYKVTPFKSQNMSNNSYITVEGLEIGRAQGIQAEAAMEEASVYMNPILLKPRNDREAEIVCFGQAVDTVSGVKYRDGFYKRGLEAIKQALATLSQSFDMVVIEGAGSPVEVNLNDRELVNMKVAELADVPVILVADIERGGVFASLYGTLELLQPNERKRVVGIIVNKFRGDPELFSSGVQWIEQHLGVPVLGVLPHLPGVRIEGEDSLSKGQVTSVLP,not soluble
12,MGHHHHHHSHMKSQGQHWYSSSDKNCKVSFREKLLIIDSNLGVQDVENLKFLCIGLVPNKKLEKSSSASDVFEHLLAEDLLSEEDPFFLAELLYIIRQKKLLQHLNCTKEEVERLLPTRQRVSLFRNLLYELSEGIDSENLKDMIFLLKDSLPKTEMTSLSFLAFLEKQGKIDEDNLTCLEDLCKTVVPKLLRNIEKYKREKAIQIVTPPVDKEAESYQGEEELVSQTDVKTFLEALPQESWQNKHAGSNGNRATNGAPSLVSRGMQGASANTLNSETSTKRAAVYRMNRNHRGLCVIVNNHSFTSLKDRQGTHKDAEILSHVFQWLGFTVHIHNNVTKVEMEMVLQKQKCNPAHADGDCFVFCILTHGRFGAVYSSDEALIPIREIMSHFTALQCPRLAEKPKLFFIQACQGEEIQPSVSIEADALNPEQ,not soluble
13,MGHHHHHHSHMLKSERKQIILSQLKQDGFVTLENLTVLLSDTSESTIRRDLDELAADGKLKRVHGGAESIHGLKEEIANSQKAIRNVQEKAQLAGYAADLIKEGDVVFLEASTTNELLIPHLSNRQVTVVTNSIHHAVKLVDLGISTRIIGGKVKHSTDASIGSTALEQIRQLNFDCAFIGANGVDANYFTTPDMEEAVIKRTVIANAQKAYVLADASKLGQITYAKVAEVEKVTIITNASEEGLLKELKEKTRVIEV,soluble
14,MGHHHHHHSHMLLAASKVLDRLKPVIGVNTDPERSEGHLCLPVRYTHSFPEALQKFYRGEFRWLWRQRIRLYLEGTGINPVPVDLHEQQLSLNQHNRALNIERAHDERSEASGPQLLPVRALNEVFIGESLSSRASYYEISVDDGPWEKQKSSGLNLCTGTGSKAWSFNINRVATQAVEDVLNIAKRQGNLSLPLNRELVEKVTNEYNESLLYSPEEPKILFSIREPIANRVFSSSRQRCFSSKVCVRSRCWDACMVVDGGTSFEFNDGAIASMMINKEDELRTVLLEQ,not soluble
15,MGHHHHHHSHMNCCGIWPFGKPGVPYKRLADVETDERMEMEIRLGMPPGVLAADLIRSTKDKQVLEQLYLLAVQANNLTEHIKRFTLGEIPEECKNVTRSQLEKLKSVQHIIWNTMISLAAGAISVDEATLPALLDKRAEETVALLEMEKIATAVKLDETAAWATDIAGIVSSQPLATPPSESPDQIALKKATQLSNAVY,soluble
16,MGHHHHHHSHMPQFSPSYSFPVQIYYEDTDFSGVVYHPNFLKYFERAREHVIGAEQLRNLWQQQQLGFAVYRSDMLCHEGVEFADIIDIRTKFYFESKYRTVWHQEIWRPNGKKPAVTATIEMVCMNQARQLAPMPAELITQLSLGM,soluble
17,MGHHHHHHSHMQHFKRTGTGTPVKRVRKAIEKSETTSEHTCQLCGGWFDTKIGLSNHVRGHLKRLGKTKWDAHKSPICVLNEMMQNEEKYEKILKALNSRRIIPRPFVAQKLASSDDFISQNVIPLEAYRNGLKTEALSVSASEEEGLNFLNEYDETKPELPSGKKNQSLTLIELLKNKRMGEERNSAISPQKIHNQTARKRFVQKCVLPLNEDSPLMYQPQKMDLTMHSALDCKQKKSRSRSGSKKKMLTLPHGADEVYILRCRFCGLVFRGPLSVQEDWIKHLQRHIVNANLPRTGAGMVEVTSLLKKPASITETSFSLLMAEAAS,not soluble
18,MGHHHHHHSHMRRFQRSTVIDAPRELVWAFHEQADVLEQLTPPWLPVEVVRREGGLGPGAVSEFRLWLGPVPIRWVATHNDDYEPGRCFCDRQSQGPFADWLHRHIFSREGDRTRLIDEVEYALPGGWLPELSVCPVVDAQLERLFAYRQQVTKQWCESRRDAFLQSNRTTKGLQSL,not soluble
19,MGHHHHHHSHMSDAGMPSLSDPGMSLAAYALKHNIQYDVLPGANALTTAFCASGFLEGRFFYAGFLPHKSKERRLKIAKILNALAYLEEKTPVVFYESPHRLLETLKDLNDLAKGMHLFAAKELTKLHQQYYLGEVSQIIERLQQSTIQGEWVLVLLNEKKIEPCMGLSALLELDLPPKIKAKIEAVMTQKNAKELYFQRLLEEKNQ,not soluble
20,MGHHHHHHSHMSFSKESSRLFGFVAGIKFPKMIQKVINENYVKYFNINMSEFKAPCEYESLNALFTRTLQIPRKFEEGFISPSDGKILECGSTFLANEEHFAFSIKGHAYSVEELLKDSFEKDELKNGLDYVNIYLSPKDYHRYHSPCDMQILSATYTSGVLYSVNEKHLERISNLYVKNERVSLKCQNEKGIFWLVFVGAQNVGKMRFNFDASIQTNAKISHNFTRKYENLNFKKGEELGNFELGSTIVLISQKGLLTFNLKVGQGIKFGEKIAD,soluble
21,MGHHHHHHSHMSIPSSQYGFVFNKQSGLKLRNDLPVHKPKAGQLLLKVDAVGLCHSDLHVIYEGLDCGDNYVMGHEIAGTVAAVGDDVINYKVGDRVACVGPNGCGGCKYCRGAIDNVCKNAFGDWFGLGYDGGYQQYLLVTRPRNLSRIPDNVSADVAAASTDAVLTPYHAIKMAQVSPTSNILLIGAGGLGGNAIQVAKAFGAKVTVLDKKKEARDQAKKLGADAVYETLPESISPGSFSACFDFVSVQATFDVCQKYVEPKGVIMPVGLGAPNLSFNLGDLALREIRILGSFWGTTNDLDDVLKLVSEGKVKPVVRSAKLKELPEYIEKLRNNAYEGRVVFNP,soluble
22,MGHHHHHHSHMSPAPVIPSNTDYPGPHHFEVTFQQSSTAKSATWTYSPLLKKLYCQIAKTCPIQIKVSTPPPPGTAIRAMPVYKKAEHVTDVVKRCPNHELGRDFNEGQSAPASHLIRVEGNNLSQYVDDPVTGRQSVVVPYEPPQVGTEFTTILYNFMCNSSCVGGMNRRPILIIITLEMRDGQVLGRRSFEGRICACPGRDRKADEDHYREQQALNE,soluble
23,MGHHHHHHSHMTLEELVACDNAAQKMQTVTAAVEELLVAAQRQDRLTVGVYESAKLMNVDPDSVVLCLLAIDEEEEDDIALQIHFTLIQSFCCDNDINIVRVSGNARLAQLLGEPAETQGTTEARDLHCLPFLQNPHTDAWKSHGLVEVASYCEESRGNNQWVPYISLQER,soluble
24,MGHHHHHHSHMVAHNQVAADNAVSTAAEPRRRPEPSSSSSSSPAAPARPRPCPAVPAPAPGDTHFRTFRSHADYRRITRASALLDACGFYWGPLSVHGAHERLRAEPVGTFLVRDSRQRNCFFALSVKMASGPTSIRVHFQAGRFHLDGSRESFDCLFELLEHYVAAPRRMLGAPLRQRRVRPLQELCRQRIVATVGRENLARIPLNPVLRDYLSSFPFQI,not soluble
25,MGHHHHHHSHMVGSRRVKAQTFAERRERSFSRSWSDPTPMKADTSHDSRDSSDLQSSHCTLDEAFEDLDWDTEKGLEAVACDTEGFVPPKVMLISSKVPKAEYIPTIIRRDDPSIIPILYDHEHATFEDILEEIERKLNVYHKGAKIWKMLIFCQGGPGHLYLLKNKVATFAKVEKEEDMIHFWKRLSRLMSKVNPEPNVIHIMGCYILGNPNGEKLFQNLRTLMTPYRVTFESPLELSAQGKQMIETYFDFRLYRLWKSRQHSKLLDFDDVL,not soluble
26,MGHHHHHHSHMVPGSEGPARAGSVVADVVFVIEGTANLGPYFEGLRKHYLLPAIEYFNGGPPAETDFGGDYGGTQYSLVVFNTVDCAPESYVQCHAPTSSAYEFVTWLDGIKFMGGGGESCSLIAEGLSTALQLFDDFKKMREQIGQTHRVCLLICNSPPYLLPAVESTTYSGCTTENLVQQIGERGIHFSIVSPRKLPAL,not soluble
